The text below walks through data of article PMC4154664.

One may read the Km as the concentration of substrate that gives half-maximal velocity.

Substrate in this data set: CCCCCCCCCCCCCC(=O)SCCNC(=O)CCNC(=O)[C@H](O)C(C)(C)COP(=O)(O)OP(=O)(O)OC[C@H]1O[C@@H](n2cnc3c(N)ncnc32)[C@H](O)[C@@H]1OP(=O)(O)O
The data set is described as follows: purified protein.

B1: B. malayi NMT (BmNMT, myristoyl-CoA:protein N-myristoyltransferase) (Brugia malayi) (protein)
chain: MKEPPAGNIKLDDEDEKMMAAGNSKMDQNNDKENDAGDESIQNVTGRNSPTAVIDLKELTESTLMKKFEMLTVGGTSAAKHITEAQRHKYLFWDTQPVPKINEMVTENRAIEPPLDISEVREEPFSLPDPFCWCDIEINSVKELTELYTLLTENYVEDDDNMFRFDYSPEFLLWALKAPGWMKNWHCGVRAKSNGKLIAFISAIPSVIRVYDKQIKMVEINFLCVHKKLRSKRVAPVLIREITRRVNREGIFQAVFTAGVVLPKPIATCRYWHRSLNPKKLIEVKFSHLSRKMTMQRTLKLYKLPDHPRTANLVPMKKCHIDGAYGLLQCYLKKFDLSPQFTRADFEHFFMPREDVIYSYVALNEEDSKVSDLISFYSLPSSVMHHPQYKSIRAAYSFYNVATSVTLKQLINDALILARNCGFDVFNALDLMDNKEILEDLKFGIGDGNLQYYLYNWKCPDIIPEKIGLVLQ
On to B1, for which the Km was found to be 4.4 µM.

B2: C. elegans NMT (CeNMT, myristoyl-CoA:protein N-myristoyltransferase) (Caenorhabditis elegans) (protein)
chain: MSHGHSHDGAPCGGHHGDDGAGGSRPSVNDVQALVDQLRLAGVDVSNMPNIPTAPRDMDEARSKSFQFWSTQPVPQMDETVPADVNCAIEENIALDKVRAEPFSLPAGFRWSNVDLSDEEQLNELYNLLTRNYVEDDDSMFRFDYSADFLKWALQVPGFRPEWHCGVRADSNNRLLAFIGAVPQTVRVYDKTVNMVEINFLCVHKNLRSRRVAPVLIREITRRVNVTGIFQAAFTAGIVIPKPVSVCRYYHRSLNPRKLIDVRFSHLSAKMTMARTIKLYKLPEETATRNLREMKSTDVPQVFKLLTTSLKQYSLAPVYNSEEELAHALVPKKGVVYSYVAENQNGKITDFVSFYSLPSTVMGHTTHKTIYAAYLYYYVAGSVTPKQLINDSLILANREKFDVFNALDLMHNEKIFSDLKFGKGDGNLQYYLYNWKCADMKPSQIGLVLQ
As for B2, the Km was 12.2 µM.
